One assay concerns the target Gαolf (human) (UniProt P38405).
The target in assay [1] is purified Ric-8B (peptide-binding thermal shift assay) (mouse) (UniProt Q80XE1). Description: differential scanning fluorimetry. A general note: Differential scanning fluorimetry follows unfolding on heating by fluorescence.
purified Ric-8B (peptide-binding thermal shift assay) (mouse), sequence (Q80XE1 1-483): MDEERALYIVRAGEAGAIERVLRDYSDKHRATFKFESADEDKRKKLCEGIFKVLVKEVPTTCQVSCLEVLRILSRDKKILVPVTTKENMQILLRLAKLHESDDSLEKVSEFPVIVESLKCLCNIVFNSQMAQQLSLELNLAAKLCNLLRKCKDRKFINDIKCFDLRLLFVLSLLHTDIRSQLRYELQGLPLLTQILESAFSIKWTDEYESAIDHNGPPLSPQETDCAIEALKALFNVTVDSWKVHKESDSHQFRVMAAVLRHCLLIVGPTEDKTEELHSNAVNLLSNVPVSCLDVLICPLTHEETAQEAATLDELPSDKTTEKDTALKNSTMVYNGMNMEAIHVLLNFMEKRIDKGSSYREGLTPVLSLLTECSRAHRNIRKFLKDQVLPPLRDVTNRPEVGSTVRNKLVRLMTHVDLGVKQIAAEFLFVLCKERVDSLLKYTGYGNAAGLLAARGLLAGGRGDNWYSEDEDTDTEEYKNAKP

Gαolf (human), sequence (P38405 whole entry): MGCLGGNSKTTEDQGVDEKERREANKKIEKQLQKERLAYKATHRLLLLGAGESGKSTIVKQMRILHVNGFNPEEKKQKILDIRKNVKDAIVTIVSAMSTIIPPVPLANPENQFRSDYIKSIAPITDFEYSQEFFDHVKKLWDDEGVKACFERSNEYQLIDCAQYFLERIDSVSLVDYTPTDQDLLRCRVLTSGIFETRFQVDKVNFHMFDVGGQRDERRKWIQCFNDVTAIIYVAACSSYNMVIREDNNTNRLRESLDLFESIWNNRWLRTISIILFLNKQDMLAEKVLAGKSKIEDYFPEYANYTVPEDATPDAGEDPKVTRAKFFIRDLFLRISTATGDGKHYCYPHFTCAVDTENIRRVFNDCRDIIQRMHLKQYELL

The substance “Ric-8B with its ARM7 loop replaced by that of Ric-8A” yielded a folding of the Gαolf-RLuc sensor (luminescence) in RIC-8B knockout HEK293T cells in the assay with Gαolf (human) of 10 % decrease.

For the substance Gαs C-term amidated peptide, the maximal thermal shift (ΔTm) in assay [1] came out at 3.3 °C.
